Legend:
[1] = test system: endothelial progenitor cells (EPCs); assay: EPC mobilization assay; assay type: in vivo, mice
Procedure: For EPC mobilization assay, mice were treated with PDGF-CC protein (4.5 μg/day) immediately after femoral artery ligation using subcutaneously implanted osmotic minipumps (Alzet, type 2001). After two or five days, mice were sacrificed and spleens harvested for EPC analysis using procedures described previously (Asahara et al., Circ Res, 1999 85:221-8; Dimmeler et al., J. Clin. Invest., 2001 108:391-397). Spleens were mechanically minced using syringe plungers and laid over Ficoll to isolate splenocytes. Splenocytes were seeded into fibronectin-coated 24-well plates in 0.5 ml EBM medium. After three weeks of culturing, adherent cells were stained for Dil-Ac-LDL/lectin and number of the positive cells counted. Late outgrowth EPCs (after 3 weeks of culture) were identified by metabolic uptake of DiI-acetylated-LDL (Molecular Probes) and positive staining of Alexa 488-labeled isolectin B4 (Molecular Probes). Quantification of the EPC density was performed by confocal microscopy in five microscopic fields at 200× magnification, and average EPC density calculated.
To examine the possible mechanism of how PDGF-CC stimulates vessel growth and maturation, we next assessed its effects on vascular endothelial progenitor cells (EPCs). […] By scoring after 3 weeks, only late-outgrowth EPCs, but not surviving sloughed-off endothelial cells, are selectively assayed (Lin et al., J Clin Invest, 2000 105:71-7; Rafii, S., J Clin Invest, 2000 105:17-9).

NIH-3T3 fibroblast cells = assay: NIH-3T3 proliferation assay; assay type: cell-based; settings: two days, different concentrations
Procedure: Cell migration assays were performed on growth arrested confluent HMVEC, BAEC or hSMC cells. Cell monolayers were wounded with a rubber policeman and washed with serum-free medium. Dishes were then incubated for 20 hours in serum-free medium containing VEGF165, PDGF-AA, (R&D Systems, Minneapolis USA) or PDGF-CC. Each assay included two dishes per condition and was repeated three times independently. Cells were photographed at 40× magnification, and migration percentage corresponding to the ratio between area of the cells and the total area of the wound (Biocom visiol@b 2000 version 4.52, San Diego). For HMVEC proliferation assay, cells were seeded in 96-well plates (5 wells per condition), and incubated with VEGF, PDGF-AA, or PDGF-CC (50 ng/ml) after serum starvation. After 7 days, viable cells were counted using the cell Titer-glo luminescent cell viability assay. For NIH-3T3 and hSMC proliferation assay, cells cultured in 96-well plates were serum-starved overnight, followed by treatment with growth factors at different concentrations. Two days later, cell numbers were counted and proliferation percentage calculated, using cells cultured in medium containing 10% serum as control. Aortic ring assay was performed as described 51. […] Aortic rings were analysed at day 9 of culturing. […]

human VEGFR-2 = biological target: T1, human VEGFR-2 (Homo sapiens, UniProt P35968); assay: Binding to soluble VEGFR-2-Ig fusion protein; settings: 35S-labeled protein in conditioned medium from 293 cells, precipitation with Ig-fusion protein
T1 construct: soluble Ig-fusion proteins containing the extracellular domains of human VEGFR-1, VEGFR-2 and VEGFR-3; made in house; host or cells: human 293 EBNA cells, transient expression
Procedure: To assess the interactions between full length and truncated PDGF-C and the VEGF receptors, full length and truncated PDGF-C were tested for their capacity to bind to soluble Ig-fusion proteins containing the extracellular domains of human VEGFR-1, VEGFR-2 and VEGFR-3 (Olofsson et al., Proc. Natl. Acad. Sci. USA, 1998 95:11709-11714). The fusion proteins, designated VEGFR-1-Ig, VEGFR-2-Ig and VEGFR-3-Ig, were transiently expressed in human 293 EBNA cells. All Ig fusion proteins were human VEGFRs. Cells were incubated for 24 hours after transfection, washed with Dulbecco's Modified Eagle Medium (DMEM) containing 0.2% bovine serum albumin and starved for 24 hours. The fusion proteins were then precipitated from the clarified conditioned medium using protein A-Sepharose beads (Pharmacia). The beads were combined with 100 microliters of 10× binding buffer (5% bovine serum albumin, 0.2% Tween 20 and 10 µg/ml heparin) and 900 microliter of conditioned medium from 293 cells that had been transfected with mammalian expression plasmids encoding full length or truncated PDGF-C or control vector, then metabolically labeled with ^35S-cysteine and methionine (Promix, Amersham) for 4 to 6 hours. […] Labeled proteins that were bound to the Ig-fusion proteins were analyzed by SDS-PAGE under reducing conditions. Radiolabeled proteins were detected using a phosphorimager analyzer.

PDGF alpha receptors = PDGF alpha receptors (Homo sapiens, UniProt P16234); assay: Binding of radiolabeled truncated PDGF-C to PAE-1 cells expressing PDGF alpha receptors; design: expressed in transfected cells; host or cells: porcine aortic endothelial (PAE-1) cells; settings: 125I-labeled protein, on ice 90 minutes
Procedure: To assess the interactions between truncated PDGF-C and the PDGF alpha and beta receptors, truncated PDGF-C was tested for its capacity to bind to porcine aortic endothelial-1 (PAE-1) cells expressing PDGF alpha or beta receptors, respectively (Eriksson et al., EMBO J, 1992 11:543-550). The binding experiments were performed essentially as described in Heldin et al. (EMBO J, 1988 7:1387 1393). Five micrograms of truncated PDGF-C protein in ten microliters of sodium borate buffer was radiolabeled using the Bolton-Hunter reagent (Amersham) to a specific activity of 4×10^5 cpm/ng. Different concentrations of radiolabeled truncated PDGF-C, with or without added unlabeled protein, in binding buffer (PBS containing 1 mg/ml of bovine serum albumin) was added to the receptor expressing PAE-1 cells plated in 24-well culture dishes on ice for 90 minutes. After three washes with binding buffer, cell-bound ^125I-labeled PDGF-C was extracted by lysis of cells in 20 mM Tris-HCl, pH 7.5, 10% glycerol, 1% Triton X-100. The amount of cell-bound radioactivity was determined in a gamma-counter. Non-specific binding was estimated by including a 100-fold molar excess of truncated PDGF-C in some experiments. […] The binding was specific as radiolabeled PDGF-C was quantitatively displaced by a 100-fold molar excess of unlabeled protein.

T1 sequence (P35968 20-764 limits assumed): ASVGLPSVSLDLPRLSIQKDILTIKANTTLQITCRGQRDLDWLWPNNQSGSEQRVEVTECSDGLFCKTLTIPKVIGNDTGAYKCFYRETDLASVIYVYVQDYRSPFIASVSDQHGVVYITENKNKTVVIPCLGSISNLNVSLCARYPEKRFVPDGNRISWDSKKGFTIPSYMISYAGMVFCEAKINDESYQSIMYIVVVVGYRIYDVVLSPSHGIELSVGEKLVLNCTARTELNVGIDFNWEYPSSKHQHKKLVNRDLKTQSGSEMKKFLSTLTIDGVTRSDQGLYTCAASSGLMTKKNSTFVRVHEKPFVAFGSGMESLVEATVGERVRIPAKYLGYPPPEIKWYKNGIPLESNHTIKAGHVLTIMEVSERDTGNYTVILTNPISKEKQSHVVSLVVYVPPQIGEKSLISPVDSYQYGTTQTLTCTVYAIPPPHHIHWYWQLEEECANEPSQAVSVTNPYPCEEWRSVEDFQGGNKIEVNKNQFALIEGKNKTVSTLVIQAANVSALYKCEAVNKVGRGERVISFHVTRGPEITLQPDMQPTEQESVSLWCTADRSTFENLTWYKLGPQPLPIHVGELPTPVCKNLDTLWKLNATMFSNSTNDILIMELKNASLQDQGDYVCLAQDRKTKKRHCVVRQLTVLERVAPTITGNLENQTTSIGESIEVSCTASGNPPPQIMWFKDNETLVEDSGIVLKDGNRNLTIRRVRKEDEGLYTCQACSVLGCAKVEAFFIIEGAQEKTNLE
Sequence of PDGF alpha receptors (P16234 24-1089): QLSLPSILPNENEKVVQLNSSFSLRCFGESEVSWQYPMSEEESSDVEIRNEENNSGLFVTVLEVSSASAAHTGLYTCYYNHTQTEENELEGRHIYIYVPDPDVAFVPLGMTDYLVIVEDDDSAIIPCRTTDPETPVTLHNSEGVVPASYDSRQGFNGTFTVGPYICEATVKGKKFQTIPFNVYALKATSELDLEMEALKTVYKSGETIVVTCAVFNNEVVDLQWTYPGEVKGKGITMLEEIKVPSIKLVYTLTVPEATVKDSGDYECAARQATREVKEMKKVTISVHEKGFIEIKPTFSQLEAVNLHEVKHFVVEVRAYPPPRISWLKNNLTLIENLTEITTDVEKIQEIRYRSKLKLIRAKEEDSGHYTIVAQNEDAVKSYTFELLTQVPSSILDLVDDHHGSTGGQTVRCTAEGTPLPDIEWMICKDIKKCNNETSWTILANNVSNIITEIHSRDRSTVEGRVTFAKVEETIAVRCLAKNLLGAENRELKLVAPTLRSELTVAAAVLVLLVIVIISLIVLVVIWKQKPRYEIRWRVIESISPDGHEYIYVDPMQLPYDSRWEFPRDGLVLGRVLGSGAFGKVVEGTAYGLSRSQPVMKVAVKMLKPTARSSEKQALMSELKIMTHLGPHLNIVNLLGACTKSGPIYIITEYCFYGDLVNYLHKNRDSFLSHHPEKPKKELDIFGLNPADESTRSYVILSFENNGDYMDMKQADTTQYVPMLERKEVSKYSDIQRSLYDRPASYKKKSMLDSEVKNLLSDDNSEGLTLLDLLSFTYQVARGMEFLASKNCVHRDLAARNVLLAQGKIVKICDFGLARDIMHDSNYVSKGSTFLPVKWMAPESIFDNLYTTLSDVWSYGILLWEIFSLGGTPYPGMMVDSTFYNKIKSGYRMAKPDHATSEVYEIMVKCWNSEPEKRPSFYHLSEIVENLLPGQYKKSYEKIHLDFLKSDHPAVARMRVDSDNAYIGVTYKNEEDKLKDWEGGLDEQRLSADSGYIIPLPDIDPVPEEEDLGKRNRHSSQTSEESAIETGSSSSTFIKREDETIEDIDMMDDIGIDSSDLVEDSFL

B1: PDGF-CC: recombinant human PDGF-CC core domain homodimer, residues 230-345 of full-length PDGF-C (SEQ ID NO:40), produced in baculovirus infected insect cells (protein)
chain: GRKSRVVDLNLLTEEVRLYSCTPRNFSVSIREELKRTDTIFWPGCLLVKRCGGNCACCLHNCNECQCVPSKVTKKYHEVLQLRPKTGVRGLHKSLTDVALEHHEECDCVCRGSTGG
modifications: homodimer; PDGF-C core domain
[1]; baseline conditions (no ischemia)
  mobilization of EPCs: did not affect
[1]; femoral artery ligation, day five
  augmentation of EPC mobilization: persisted to day five, albeit at a lower level
[1]; femoral artery ligation, two days, 4.5 μg/day via minipump
  augmentation of EPC mobilization above control group: approximately 3 fold
[1]; from day 2 to day 5 after hind limb ischemia
  augmentation of EPC mobilization compared with the vehicle group (FIG. 38 legend): ~4 fold
NIH-3T3 fibroblast cells
  proliferation of cultured NIH-3T3 fibroblast cells: stimulated
Human VEGFR-2
  interaction with VEGFR-2-Ig: failed to show any interaction
PDGF alpha receptors
  binding to cells expressing PDGF alpha receptors: binds

From US20070172423A1, “Composition and method for modulating vasculogenesis for angiogenesis” (priority 1998, published 2007)
